Target: CS1 on MM.1S multiple myeloma cells (human, UniProt Q9NQ25 23-335)
Assay: cell-based or functional assay

IFN-γ and TNF-α positive cells detected by intracellular cytokine staining: > 2 fold
B1: CS1-dbBiTE (anti-CS1-huOKT3 dual specific bivalent T-cell engager: intact elotuzumab clicked to intact humanized OKT3 at their reduced hinge regions) (bispecific antibody, human IgG1, kappa)
heavy: not shown
light: DIQMTQSPSSLSASVGDRVTITCKASQDVGIAVAWYQQKPGKVPKLLIYWASTRHTGVPDRFSGSGSGTDFTLTISSLQPEDVATYYCQQYSSYPYTFGQGTKVEIKRTVAAPSVFIFPPSDEQLKSGTASVVCLLNNFYPREAKVQWKVDNALQSGNSQESVTEQDSKDSTYSLSSTLTLSKADYEKHKVYACEVTHQGLSSPVTKSFNRGEC
VH: QLVQSGGGVVQPGRSLRLSCKASGYTFTRYTMHWVRQAPGKGLEWIGYINPSRGYTNYNQKVKDRFTISTDKSKSTAFLQMDSLRPEDTAVYYCARYYDDHYCLDYWGQGTPVTV
VL: DIQMTQSPSSLSASVGDRVTITCSASSSVSYMNWYQQTPGKAPKRWIYDTSKLASGVPSRFSGSGSGTDYTFTISSLQPEDIATYYCQQWSSNPFTFGQGTKLQITR
modifications: one PEG5-N3 per light chain; reduced cysteines of the heavy chain alkylated with bromoacetamide-PEG5-N3, an average of 3 PEG5-N3/heavy chain; one DBCO/light chain (bromoacetamido-DBCO on reduced cysteine); reduced cysteines alkylated with bromoacetamido-DBCO, an average of 3 DBCO/heavy chain; clicked to PEG5-N3 on huOKT3

Reference: patent US20250074982A1 (CITY OF HOPE, published 2025)
